The first assay concerns the target endophilin SH3 (SH3G2_HUMAN), Q99962. The assay can be described thus: SPOT array.
Take NQKQLKRPAQGKRQ [Q9H6S7 54-67]: the normalised SPOT signal, Boehringer light units (BLU); mean over the file's lines of this peptide amounted to 68.6.
In turn, NQSVPKRPAGSVQN [P00533 1094-1107] showed a normalised SPOT signal, Boehringer light units (BLU); mean over the file's lines of this peptide of 26.5.
As to MWGFLKRPVVVTAD [Q9Y6A1 1-14], the normalised SPOT signal, Boehringer light units (BLU); mean over the file's lines of this peptide was 121.
Still for that read-out and setting: the figure for NEPLFVRPPKGSPQ [Q9H251 2718-2731] is 154; for NETGLSRPRRTAMS [Q15598 1736-1749] it is 154.
Molecule ARKQPRRPHFLLEP [O60289 975-988] displayed a normalised SPOT signal, Boehringer light units (BLU); mean over the file's lines of this peptide of 31.6.
Same read-out and setting: next, NINGIRRPLQGVAN [Q9Y5X7 8-21]: 44.7; NGAEPKRPSRPINI [Q9Y6X2 222-235]: 105; AREEFRRPRESLLN [Q96JI4 1223-1236]: 27.4.
For NFGNLPRPGRGARG [Q9NYJ2 360-373], the normalised SPOT signal, Boehringer light units (BLU); mean over the file's lines of this peptide was determined as 1340.
On the same count and under the same terms, the figure for ARARPRRPREETLT [P53539 138-151] is 181.
With NLSLLRRPGEKTYT [P23246 281-294], the normalised SPOT signal, Boehringer light units (BLU); mean over the file's lines of this peptide was found to be 23.4.
The same measure, in the same setting: next, NGYFFKRPYPFVLF [Q9NWE7 371-384]: 106; ARGSPARPRRLPLL [Q13308 4-17]: 1930; NEDYPRRPLTRARS [Q9HC40 116-129]: 690.
Turning to NEPHIKRPMNAFMV [P35711 136-149], the normalised SPOT signal, Boehringer light units (BLU); mean over the file's lines of this peptide was found to be 0.
NFGDLGRPGRGGRG [Q9Y367 343-356] registered a normalised SPOT signal, Boehringer light units (BLU); mean over the file's lines of this peptide of 882.
In turn, NSQAPRRPWLASHM [O43284 274-287] had a normalised SPOT signal, Boehringer light units (BLU); mean over the file's lines of this peptide of 6860.
Same read-out and setting: next, NLLPPKRPIKEVLT [Q9NNY5 699-712]: 1560; NDRFPFRPSRGRPT [Q9Y3I1 502-515]: 4510.
As to NMSDPRRPNKVLRY [Q9Y284 5-18], the normalised SPOT signal, Boehringer light units (BLU); mean over the file's lines of this peptide is 1060.
The same measure, in the same setting: next, NPALFPRPERYNPQ [P15538 413-426]: 102.
Consider NKIEFKRPGKAANK [Q9ULP1 1037-1050], for which the normalised SPOT signal, Boehringer light units (BLU); mean over the file's lines of this peptide was 128.
The same measure, in the same setting: the figure for NGTQILRPPKVLSP [Q14676 96-109] is 150; for NSEHFHRPLRRSEA [O15050 583-596] it is 199; for NKVPIKRPSTGLLM [Q92187 271-284] it is 366.
On the same count and under the same terms, the figure for NIEKIKRPRSSNAE [Q12920 238-251] is 55.4.
The same measure, in the same setting: next, NKVHIKRPTTGLLM [Q92186 286-299]: 125.
In the case of NAALFPRPERYNPQ [P19099 413-426], the normalised SPOT signal, Boehringer light units (BLU); mean over the file's lines of this peptide amounted to 63.6.
Take NGVEPKRPSRPINI [O75925 239-252]: the normalised SPOT signal, Boehringer light units (BLU); mean over the file's lines of this peptide came to 35.6.
The same measure, in the same setting: next, NLFGPKRPKALKLL [O75560 490-503]: 1970; NIQTLDRPIKKGPV [Q9P2M9 345-358]: 58.7; NSFIPKRPIPTIKD [Q96TH1 910-923]: 556.
NNRVLRRPSERGRA [Q9Y3S6 986-999] came in with a normalised SPOT signal, Boehringer light units (BLU); mean over the file's lines of this peptide of 652.
On to NFQPPKRPFKRMNY [O43776 380-393], for which the normalised SPOT signal, Boehringer light units (BLU); mean over the file's lines of this peptide stood at 525.
Molecule NMNRFDRPDRNVRQ [Q9ULU1 327-340] gave a normalised SPOT signal, Boehringer light units (BLU); mean over the file's lines of this peptide of 452.
The same measure, in the same setting: next, NRWGPGRPPFRKAQ [Q9Y2K9 813-827]: 6400.
Same read-out and setting: the figure for NNPLIGRPNKVTTV [O60306 1318-1331] is 267.

The next assay addresses T1, amphyphisin SH3 (AMPH_HUMAN), P49418.
T1 chain: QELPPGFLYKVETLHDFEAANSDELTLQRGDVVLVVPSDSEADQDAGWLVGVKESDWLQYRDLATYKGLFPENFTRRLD
As to the kind of experiment: SPOT array.
With NQKQLKRPAQGKRQ [Q9H6S7 54-67], the normalised SPOT signal, Boehringer light units (BLU); mean over the file's lines of this peptide is -0.
Same read-out and setting: the figure for NQSVPKRPAGSVQN [P00533 1094-1107] is 23.4.
Still for that read-out and setting: the figure for MWGFLKRPVVVTAD [Q9Y6A1 1-14] is 37.8.
The same measure, in the same setting: the figure for NEPLFVRPPKGSPQ [Q9H251 2718-2731] is 215; for NETGLSRPRRTAMS [Q15598 1736-1749] it is 742.
Regarding ARKQPRRPHFLLEP [O60289 975-988], the normalised SPOT signal, Boehringer light units (BLU); mean over the file's lines of this peptide worked out at 30.4.
Molecule NINGIRRPLQGVAN [Q9Y5X7 8-21] had a normalised SPOT signal, Boehringer light units (BLU); mean over the file's lines of this peptide of 17.3.
Molecule NGAEPKRPSRPINI [Q9Y6X2 222-235] gave a normalised SPOT signal, Boehringer light units (BLU); mean over the file's lines of this peptide of 3920.
On the same count and under the same terms, the figure for AREEFRRPRESLLN [Q96JI4 1223-1236] is 19.8; for NFGNLPRPGRGARG [Q9NYJ2 360-373] it is 946; for ARARPRRPREETLT [P53539 138-151] it is 42.3.
On to NLSLLRRPGEKTYT [P23246 281-294], for which the normalised SPOT signal, Boehringer light units (BLU); mean over the file's lines of this peptide came out at 29.7.
As for NGYFFKRPYPFVLF [Q9NWE7 371-384], the normalised SPOT signal, Boehringer light units (BLU); mean over the file's lines of this peptide was 64.4.
ARGSPARPRRLPLL [Q13308 4-17]: the normalised SPOT signal, Boehringer light units (BLU); mean over the file's lines of this peptide came to 6690.
Same read-out and setting: next, NEDYPRRPLTRARS [Q9HC40 116-129]: 393; NEPHIKRPMNAFMV [P35711 136-149]: 46.1.
Same read-out and setting: next, NFGDLGRPGRGGRG [Q9Y367 343-356]: 895.
NSQAPRRPWLASHM [O43284 274-287] returned a normalised SPOT signal, Boehringer light units (BLU); mean over the file's lines of this peptide of 88.2.
NLLPPKRPIKEVLT [Q9NNY5 699-712] yielded a normalised SPOT signal, Boehringer light units (BLU); mean over the file's lines of this peptide of 370.
NDRFPFRPSRGRPT [Q9Y3I1 502-515]: the normalised SPOT signal, Boehringer light units (BLU); mean over the file's lines of this peptide stood at 2600.
The same measure, in the same setting: next, NMSDPRRPNKVLRY [Q9Y284 5-18]: 641; NPALFPRPERYNPQ [P15538 413-426]: 318.
Still for that read-out and setting: the figure for NKIEFKRPGKAANK [Q9ULP1 1037-1050] is 124; for NGTQILRPPKVLSP [Q14676 96-109] it is 5; for NSEHFHRPLRRSEA [O15050 583-596] it is 512.
Turning to NKVPIKRPSTGLLM [Q92187 271-284], the normalised SPOT signal, Boehringer light units (BLU); mean over the file's lines of this peptide came to 6.6.
Regarding NIEKIKRPRSSNAE [Q12920 238-251], the normalised SPOT signal, Boehringer light units (BLU); mean over the file's lines of this peptide came to 26.5.
NKVHIKRPTTGLLM [Q92186 286-299] registered a normalised SPOT signal, Boehringer light units (BLU); mean over the file's lines of this peptide of 32.2.
Still for that read-out and setting: the figure for NAALFPRPERYNPQ [P19099 413-426] is 699; for NGVEPKRPSRPINI [O75925 239-252] it is 4650.
Molecule NLFGPKRPKALKLL [O75560 490-503] registered a normalised SPOT signal, Boehringer light units (BLU); mean over the file's lines of this peptide of 113.
Turning to NIQTLDRPIKKGPV [Q9P2M9 345-358], the normalised SPOT signal, Boehringer light units (BLU); mean over the file's lines of this peptide came to 16.4.
Still for that read-out and setting: next, NSFIPKRPIPTIKD [Q96TH1 910-923]: 49.2; NNRVLRRPSERGRA [Q9Y3S6 986-999]: 150.
The same measure, in the same setting: next, NFQPPKRPFKRMNY [O43776 380-393]: 793; NMNRFDRPDRNVRQ [Q9ULU1 327-340]: 3660; NRWGPGRPPFRKAQ [Q9Y2K9 813-827]: 67.5.
As for NNPLIGRPNKVTTV [O60306 1318-1331], the normalised SPOT signal, Boehringer light units (BLU); mean over the file's lines of this peptide is 45.8.

For the origin of these results see PMC314469, “Protein Interaction Networks by Proteome Peptide Scanning” (PLoS Biology, 2004).
